B1: CAL1WT-V5 (in S2 cells), Q9VEN2 W22R; F29R (protein)
chain: MANAVVDEETLEAMVYERSKARSSKMADRASLEDGMEIDVAEFDNLFHGEDEDPDLDDVAKEAVEDNVPDEAKLEMGHINATSVTELTLILCANEDNEAKAEIEEILNQTVPVVEEHKRKWREAGLDRILDTFDEKQIEHHVGRWMRRHNSVYLEASPPKYLPPHHNSISDESDESMHSIDTARYIQQSRRRNAHMTNKNMTTIKMYRKHSHKRDELRAKYAYGDEQEHRHHMQAVLLRRRERERQLAYLASTPMQCVYSSGHHMRRKNLRKRRINSWMFDSASSSEEDTSFGGCDCHSCRRHYALSRSVYQSCPYGRGQREYHHRQMASRTMHTMRRQHTFDMEMDLRPRLPENECSCCNSDRLCSNVIHIANSSTEEWVVENRSNHLTQETQEKTRKQKHQPMDARKVSHQPVCSKGHEQKPLSSKATSVSKLVLSKEKYMQMFDSESSDEDNALAKKGLLCCSDKKKGMTFPTPNAAGKITHPTSSAKKAIRKEARPNGLAQIQEEGPTATNSPIESTYLPVAHMKSVSIDGSSGTSATFESPAKKAPKRGIRETSPLNGNELQQLISTIPIADEKASSLMEKVDNCIGRESFDDRNKDFMHMENSSTKTAVEKSTKQKRVSGKKSEIPKSIITNNEILEKNSTETLSEKQVAAKAKKQSVRKTGATGKPSTSRLKKSEKTKTTSSVTSTSKLEQVREEESDVSSEVLAKPKPQCSTTASILKQGGDGASNSEDDLQIALAMSKATYKEEQQKRKKTKREPSNKQPQSPAEKSMTVFNNQSVACNSTALANDTACYRVLPKRRGVKRAAAVSTTEEKTATNSSSSPTSSLEEMGSPTGGDPDCTVVTSTTGCEPPASERQEIPATIKITKRGILLHSPSAPEGASFTLTEQGLGKIIGERWARKYLKYHIGSRSFDSRHSVYYQPTPQLAAALSAPQDAQNIGNISGSSASDDDIFEQINRYGTVYSILENNSGDK
B2: CAL1WT-V5 (in S2 cells), Q9VEN2 F43R (protein)
chain: MANAVVDEETLEAMVYERSKAWSSKMADFASLEDGMEIDVAERDNLFHGEDEDPDLDDVAKEAVEDNVPDEAKLEMGHINATSVTELTLILCANEDNEAKAEIEEILNQTVPVVEEHKRKWREAGLDRILDTFDEKQIEHHVGRWMRRHNSVYLEASPPKYLPPHHNSISDESDESMHSIDTARYIQQSRRRNAHMTNKNMTTIKMYRKHSHKRDELRAKYAYGDEQEHRHHMQAVLLRRRERERQLAYLASTPMQCVYSSGHHMRRKNLRKRRINSWMFDSASSSEEDTSFGGCDCHSCRRHYALSRSVYQSCPYGRGQREYHHRQMASRTMHTMRRQHTFDMEMDLRPRLPENECSCCNSDRLCSNVIHIANSSTEEWVVENRSNHLTQETQEKTRKQKHQPMDARKVSHQPVCSKGHEQKPLSSKATSVSKLVLSKEKYMQMFDSESSDEDNALAKKGLLCCSDKKKGMTFPTPNAAGKITHPTSSAKKAIRKEARPNGLAQIQEEGPTATNSPIESTYLPVAHMKSVSIDGSSGTSATFESPAKKAPKRGIRETSPLNGNELQQLISTIPIADEKASSLMEKVDNCIGRESFDDRNKDFMHMENSSTKTAVEKSTKQKRVSGKKSEIPKSIITNNEILEKNSTETLSEKQVAAKAKKQSVRKTGATGKPSTSRLKKSEKTKTTSSVTSTSKLEQVREEESDVSSEVLAKPKPQCSTTASILKQGGDGASNSEDDLQIALAMSKATYKEEQQKRKKTKREPSNKQPQSPAEKSMTVFNNQSVACNSTALANDTACYRVLPKRRGVKRAAAVSTTEEKTATNSSSSPTSSLEEMGSPTGGDPDCTVVTSTTGCEPPASERQEIPATIKITKRGILLHSPSAPEGASFTLTEQGLGKIIGERWARKYLKYHIGSRSFDSRHSVYYQPTPQLAAALSAPQDAQNIGNISGSSASDDDIFEQINRYGTVYSILENNSGDK

Molecular target: T1, CENP-A-GFP-LacI (in S2 cells), Q9V6Q2
T1 chain: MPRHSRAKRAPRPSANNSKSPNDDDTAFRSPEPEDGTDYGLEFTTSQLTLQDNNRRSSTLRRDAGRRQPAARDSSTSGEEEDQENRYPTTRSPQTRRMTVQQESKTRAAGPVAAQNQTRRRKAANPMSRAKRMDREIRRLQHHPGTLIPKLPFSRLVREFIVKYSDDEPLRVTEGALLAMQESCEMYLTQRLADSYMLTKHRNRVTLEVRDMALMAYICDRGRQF
Assay: LacO/LacI tethering assay in Drosophila S2 cells (fluorescence intensity of CAL1-V5 at the tethering site)
Conditions: chain shown with the change;; parent: est. 1800; read off a plot

Binder | response [a.u.]
B1 | 120
B2 | 590

— paper PMC7110144
